Test results published in patent publication US20140161800A1 (published 2014).
One block for each binder: values may come before it.

Experiments:
[1] = biological target: T1, prostate-specific membrane antigen (PSMA) (human, UniProt Q04609 1-750); assay: FACS binding; C4-2 cells; apparent EC50
[2] = biological target: T1, prostate-specific membrane antigen …; assay: FACS binding; LNCaP cells

T1 sequence (Q04609 whole entry): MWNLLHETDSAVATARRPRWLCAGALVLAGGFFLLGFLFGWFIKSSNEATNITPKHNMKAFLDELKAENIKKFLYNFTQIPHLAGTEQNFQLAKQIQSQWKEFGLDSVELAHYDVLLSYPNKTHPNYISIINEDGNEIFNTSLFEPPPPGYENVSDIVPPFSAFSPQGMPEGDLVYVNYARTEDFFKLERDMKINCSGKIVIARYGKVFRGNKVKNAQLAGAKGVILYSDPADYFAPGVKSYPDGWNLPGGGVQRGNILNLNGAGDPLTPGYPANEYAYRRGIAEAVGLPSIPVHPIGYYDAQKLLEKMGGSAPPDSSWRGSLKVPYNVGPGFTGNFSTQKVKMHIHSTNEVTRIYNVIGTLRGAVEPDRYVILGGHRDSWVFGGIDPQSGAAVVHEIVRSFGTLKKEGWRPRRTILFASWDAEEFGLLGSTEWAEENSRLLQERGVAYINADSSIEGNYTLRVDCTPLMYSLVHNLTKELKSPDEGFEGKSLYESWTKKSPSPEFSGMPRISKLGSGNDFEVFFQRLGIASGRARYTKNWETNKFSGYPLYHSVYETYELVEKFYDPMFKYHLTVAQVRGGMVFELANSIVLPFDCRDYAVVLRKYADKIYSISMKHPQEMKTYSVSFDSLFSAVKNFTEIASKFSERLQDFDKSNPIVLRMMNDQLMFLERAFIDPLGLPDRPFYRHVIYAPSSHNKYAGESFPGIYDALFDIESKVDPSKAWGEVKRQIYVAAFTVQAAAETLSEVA

B1: TSC188 humanized SMIP (107-1A4 VL-VH#1 scFv-Fc) (Fc fusion)
chain: DIQMTQSPSAMSASVGDRVTITCRASKSISKYLAWFQQKPGKVPKLRIHSGSTLQSGVPSRFSGSGSGTEFTLTISSLQPEDFATYYCQQHIEYPWTFGQGTKVEIKRGGGGSGGGGSGGGGSEVQLVQSGAEVKKPGATVKISCKASGYTFTDYYMHWVQQAPGKGLEWMGYFNPYNDYTRYAEKFQGRVTITADTSTDTAYMELSSLRSEDTAVYYCARSDGYYDAMDYWGQGTTVTVSSSEPKSSDKTHTCPPCPAPEAAGAPSVFLFPPKPKDTLMISRTPEVTCVVVDVSHEDPEVKFNWYVDGVEVHNAKTKPREEQYNSTYRVVSVLTVLHQDWLNGKAYACAVSNKALPAPIEKTISKAKGQPREPQVYTLPPSRDELTKNQVSLTCLVKGFYPSDIAVEWESNGQPENNYKTTPPVLDSDGSFFLYSKLTVDKSRWQQGNVFSCSVMHEALHNHYTQKSLSLSPGK
- EC50 [1]: 3.2 nM

B2: TSC085 chimeric SMIP (murine 107-1A4 VL-VH scFv-human Fc) (Fc fusion)
chain: DVQITQSPSYLAASPGETITINCRASKSISKYLAWYQEKPGKANKLLIHSGSTLQSGIPSRFSGSGSGTDFTLTISSLEPEDFAMYYCQQHIEYPWTFGGGTKLEIKRAGGGGSGGGGSSGGGGSEIQLQQSGPELVKPGASVKMSCKASGYTFTDYYMHWVKQNNGESLEWIGYFNPYNDYTRYNQNFNGKATLTVDKSSSTAYMQLNSLTSEDSAFYYCARSDGYYDAMDYWGQGTSVTVSSSEPKSSDKTHTCPPCPAPEAAGAPSVFLFPPKPKDTLMISRTPEVTCVVVDVSHEDPEVKFNWYVDGVEVHNAKTKPREEQYNSTYRVVSVLTVLHQDWLNGKAYACAVSNKALPAPIEKTISKAKGQPREPQVYTLPPSRDELTKNQVSLTCLVKGFYPSDIAVEWESNGQPENNYKTTPPVLDSDGSFFLYSKLTVDKSRWQQGNVFSCSVMHEALHNHYTQKSLSLSPGK
- EC50 [2]: 4.9 nM

B5: 107-1A4 murine monoclonal antibody (antibody, V domains shown)
VH: EIQLQQSGPELVKPGASVKMSCKASGYTFTDYYMHWVKQNNGESLEWIGYFNPYNDYTRYNQNFNGKATLTVDKSSSTAYMQLNSLTSEDSAFYYCARSDGYYDAMDYWGQGTSVTVSS
VL: DVQITQSPSYLAASPGETITINCRASKSISKYLAWYQEKPGKANKLLIHSGSTLQSGIPSRFSGSGSGTDFTLTISSLEPEDFAMYYCQQHIEYPWTFGGGTKLEIKR
- EC50 [2]: 5.4 nM

Second part, the binder after the results:

- EC50 [1]: 2.1 nM
B3: TSC189 humanized SMIP (107-1A4 VL-VH#2 scFv-Fc) (Fc fusion)
chain: DIQMTQSPSAMSASVGDRVTITCRASKSISKYLAWFQQKPGKVPKLRIHSGSTLQSGVPSRFSGSGSGTEFTLTISSLQPEDFATYYCQQHIEYPWTFGQGTKVEIKRGGGGSGGGGSGGGGSQVQLVQSGAEVKKPGASVKVSCKASGYTFTDYYMHWVRQAPGQGLEWMGYFNPYNDYTRYAQKFQGRVTMTRDTSISTAYMELSSLRSDDTAVYYCARSDGYYDAMDYWGQGTTVTVSSSEPKSSDKTHTCPPCPAPEAAGAPSVFLFPPKPKDTLMISRTPEVTCVVVDVSHEDPEVKFNWYVDGVEVHNAKTKPREEQYNSTYRVVSVLTVLHQDWLNGKAYACAVSNKALPAPIEKTISKAKGQPREPQVYTLPPSRDELTKNQVSLTCLVKGFYPSDIAVEWESNGQPENNYKTTPPVLDSDGSFFLYSKLTVDKSRWQQGNVFSCSVMHEALHNHYTQKSLSLSPGK

- EC50 [2]: 4 nM
B4: TSC092 chimeric SMIP (murine 107-1A4 VH-VL scFv-human Fc) (Fc fusion)
chain: EIQLQQSGPELVKPGASVKMSCKASGYTFTDYYMHWVKQNNGESLEWIGYFNPYNDYTRYNQNFNGKATLTVDKSSSTAYMQLNSLTSEDSAFYYCARSDGYYDAMDYWGQGTSVTVSSGGGGSGGGGSSGGGGSDVQITQSPSYLAASPGETITINCRASKSISKYLAWYQEKPGKANKLLIHSGSTLQSGIPSRFSGSGSGTDFTLTISSLEPEDFAMYYCQQHIEYPWTFGGGTKLEIKRASSEPKSSDKTHTCPPCPAPEAAGAPSVFLFPPKPKDTLMISRTPEVTCVVVDVSHEDPEVKFNWYVDGVEVHNAKTKPREEQYNSTYRVVSVLTVLHQDWLNGKAYACAVSNKALPAPIEKTISKAKGQPREPQVYTLPPSRDELTKNQVSLTCLVKGFYPSDIAVEWESNGQPENNYKTTPPVLDSDGSFFLYSKLTVDKSRWQQGNVFSCSVMHEALHNHYTQKSLSLSPGK
